Measurements taken from doi:10.1101/2022.04.18.488656, “HNRNPH1 destabilizes the G-quadruplex structures formed by G-rich RNA sequences that regulate the alternative splicing of an oncogenic fusion transcript”.

T1: HNRNPH1 full-length (UniProt P31943 1-449)
T1 sequence: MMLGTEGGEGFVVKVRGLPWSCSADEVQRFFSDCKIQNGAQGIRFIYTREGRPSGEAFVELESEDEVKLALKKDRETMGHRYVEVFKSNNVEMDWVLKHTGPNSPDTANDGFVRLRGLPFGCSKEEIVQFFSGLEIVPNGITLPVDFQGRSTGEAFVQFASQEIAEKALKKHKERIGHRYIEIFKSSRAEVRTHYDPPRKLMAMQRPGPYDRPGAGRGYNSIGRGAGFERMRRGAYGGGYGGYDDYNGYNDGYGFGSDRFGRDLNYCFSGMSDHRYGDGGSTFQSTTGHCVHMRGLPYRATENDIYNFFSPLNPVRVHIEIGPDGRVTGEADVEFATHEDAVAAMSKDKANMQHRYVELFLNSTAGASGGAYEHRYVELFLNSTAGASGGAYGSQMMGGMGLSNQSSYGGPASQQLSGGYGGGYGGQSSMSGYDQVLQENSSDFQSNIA

T2: HNRNPH1 qRRM1-2 (UniProt P31943 11-188)
T2 sequence: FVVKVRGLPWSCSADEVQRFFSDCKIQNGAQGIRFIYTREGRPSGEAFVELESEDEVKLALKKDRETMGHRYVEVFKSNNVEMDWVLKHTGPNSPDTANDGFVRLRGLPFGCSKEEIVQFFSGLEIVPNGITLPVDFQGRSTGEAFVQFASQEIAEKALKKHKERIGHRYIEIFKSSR

T3: HNRNPF (UniProt P52597 1-415)
T3 sequence: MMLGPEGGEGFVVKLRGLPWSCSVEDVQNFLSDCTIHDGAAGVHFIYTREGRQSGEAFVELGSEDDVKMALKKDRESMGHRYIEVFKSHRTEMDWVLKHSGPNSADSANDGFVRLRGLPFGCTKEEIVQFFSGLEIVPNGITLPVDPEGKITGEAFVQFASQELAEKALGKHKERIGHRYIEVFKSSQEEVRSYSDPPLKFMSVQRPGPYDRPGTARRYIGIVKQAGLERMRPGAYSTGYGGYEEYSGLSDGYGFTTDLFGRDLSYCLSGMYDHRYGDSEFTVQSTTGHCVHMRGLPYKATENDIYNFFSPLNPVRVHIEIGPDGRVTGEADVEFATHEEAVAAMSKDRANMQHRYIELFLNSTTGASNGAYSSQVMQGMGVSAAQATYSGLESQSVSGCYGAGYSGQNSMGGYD

B1: rG3 (structured_RNA)
RNA: GGGCGGGGAGGAGGACGCGGUGGAAUGGG
B2: rG2 (structured_RNA)
RNA: GGUGGGCGGGGAGGAGGACGCGGUGGAAU
B3: rG1 (structured_RNA)
RNA: ACCGGGGCAGGGGAAGAGGGGGAUU

How the values were obtained:
HNRNPH1 full-length = molecular target: T1, HNRNPH1 full-length; assay: BLI; 150 mM KCl (G4); BLI: 10 mM Tris-HCl pH 7.4, 150 mM KCl, 0.005% P-20, 1 mM EDTA; EMSA: 10 mM Tris-HCl pH 7.4, 1 mM EDTA, 150 mM KCl, room temp, 3 nM RNA; FRET: same Tris/EDTA with 25 mM KCl, room temp; conditions: protein: recombinant, tags: FLAG, label: 5'-biotin
HNRNPH1 qRRM1-2 = molecular target: T2, HNRNPH1 qRRM1-2; assay: BLI; 150 mM KCl; BLI: 10 mM Tris-HCl pH 7.4, 150 mM KCl, 0.005% P-20, 1 mM EDTA; EMSA: 10 mM Tris-HCl pH 7.4, 1 mM EDTA, 150 mM KCl, room temp, 3 nM RNA; FRET: same Tris/EDTA with 25 mM KCl, room temp; conditions: protein: recombinant; label: 5'-biotin; parallel two-tier G4, intramolecular
HNRNPF = molecular target: T3, HNRNPF; assay: as above; conditions: protein: recombinant; label: 5'-biotin; parallel two-tier G4, intramolecular
[1] = parallel two-tier G4, intramolecular

Row | Binder | Kd (HNRNPH1 full-length; [1]) [nM] | Kd (HNRNPH1 qRRM1-2) [nM] | Kd (HNRNPF) [nM] | Kd (HNRNPH1 full-length; parallel two-tier G4) [nM]
1 | B1 | 1.39 ± 0.54 | 4 ± 0.7 | 0.35 | 
2 | B2 |  |  |  | 3.1 ± 0.7
3 | B3 | 1.08 ± 0.53 | 6 ± 0.8 | 0.34 | 
